Data: the supplement of paper PMC10567573
± gives the standard deviation.

Experiment: protein stability index of a GFP-peptide fusion (GPS, HEK-293T) (PSI 1-6); higher = more stable
[1] = treatment: DMSO, c terminus: a fixed tail appended
[2] = treatment: MLN4924 1 uM, 8 h, c terminus: a fixed tail appended
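Further: 24-mer peptide tiles fused after GFP, lentivirally expressed, FACS-sorted into six equal bins by GFP/DsRed ratio, decoded by Illumina sequencing, PSI is the read-weighted mean bin number.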

Row | Sequence | protein stability index [1] | protein stability index [2] | protein stability index (treatment: DMSO, c terminus: native) | protein stability index (treatment: MLN4924 1 uM, 8 h, c terminus: native)
1 | HFSSIPDAFWWAVVSMTTVGYGDM [KCNA1] | 3.56 ± 0.34 | 3.12 ± 0.29 |  | 
2 | DGRQLRKMLRKEAAARCVVLDCRP [DUSP5] | 2.69 ± 0.24 | 3.07 ± 0.23 |  | 
3 | KKDTLTEEETQFYISETVLAIDAI [STK38L] | 3.85 ± 0.3 | 3.97 ± 0.15 |  | 
4 | WHPAENIIAIAATNNLYIFQDKVN [PPP2R2C] | 2.6 ± 0.48 | 2.44 ± 0.31 |  | 
5 | AQTELLCCLVKMESLEPDAQVLML [FANCE] | 2.61 ± 0.68 | 2.34 ± 0.16 |  | 
6 | LGPRDAGTRGRLESAQATFQAHRD [ARFIP2] | 4.62 ± 0.35 | 4.67 ± 0.27 |  | 
7 | MINSTSTQPPDESCSQNLLITQQI [P2RY14] | 4.24 ± 0.16 | 4.26 ± 0.096 |  | 
8 | ALGTSWTLPLQDRELGPEELDELQ [CABP4] | 5.4 ± 0.097 | 5.23 ± 0.16 |  | 
9 | APIRVRNLTIRAGALTGKENNMLQ [DMRTC1] | 3.46 ± 0.23 | 3.26 ± 0.19 |  | 
10 | IKEQLIQEGLLDRCVSFQARFAEK [HDAC6] | 2.81 ± 0.19 | 2.73 ± 0.36 |  | 
11 | LNQVADLLEQSLEEFAQAESKDQG [ALDH8A1] | 5.18 ± 0.14 | 5.21 ± 0.53 |  | 
12 | ALRLEVRAGPDSAGIALYSHEDVC [CARM1] | 2.61 ± 0.64 | 2.55 ± 0.56 |  | 
13 | TVKFANNPSQKTGQALLTHLYQSS [ELAVL3] | 3.01 ± 0.22 | 3.03 ± 0.38 |  | 
14 | LRVSPDGTAFCSGSWDHTLRVWA [GNB5] |  |  | 2.95 ± 0.33 | 2.77 ± 0.77
15 | YTMLLGRPPFETTNLKETYRCIRE [PLK2] | 2.32 ± 0.3 | 2.4 ± 0.22 |  | 
16 | ISEAQLKDRETSKVIYDFIEKTGG [WASL] | 3.42 ± 0.13 | 3.67 ± 0.15 |  | 
17 | PGNKGRGQRGNTESKTDGDDTETV [TCF25] | 5.57 ± 0.3 | 5.54 ± 0.3 |  | 
18 | PVPGKTLHLPIMGVVMKVRIPTCH [DENND6A] | 2.43 ± 0.72 | 2.45 ± 0.38 |  | 
19 | RGTHLWEFIRDILIHPELNEGLMK [ELF3] | 2.54 ± 0.59 | 2.31 ± 0.42 |  | 
20 | DTGHDSDKSDQSLPNASADSLGGS [TRAF3IP2] | 5.35 ± 0.42 | 5.51 ± 0.18 |  | 
21 | YKGHTDVVRYLLEQRADPNAKAHC [FEM1B] | 3.27 ± 0.44 | 3.6 ± 0.17 |  | 
22 | EEREEGPPRIPQADQWKSSNKSLV [RHOBTB1] | 4.99 ± 0.22 | 5.08 ± 0.29 |  | 
23 | EDEDEDEDEDEDKEEEEEDCSEEY [TAF7L] | 5.65 ± 0.31 | 5.58 ± 0.13 |  | 

Row | Sequence | protein stability index [1] | protein stability index [2] | protein stability index (treatment: DMSO, c terminus: native) | protein stability index (treatment: MLN4924 1 uM, 8 h, c terminus: native)
24 | TLWKHQFAWPFYQPVDAIKLNLPD [BRD3] | 2.46 ± 0.63 | 2.3 ± 0.13 |  | 
25 | WMENNGHVAGEQMLEDGPHNANRG [CCDC70] | 5.23 ± 0.39 | 5.25 ± 0.14 |  | 
26 | SELSESAFGYFITACAVIILTIIC [SLC29A1] | 2.03 ± 0.21 | 2.12 ± 0.39 |  | 
27 | CFRSLAASSPSIRQKKLMHKLQEE [CCDC70] | 3.22 ± 0.15 | 3.33 ± 0.046 |  | 
28 | HMSLEKDIAAMTNSLFIDRQKCMA [TEKT4] | 3 ± 0.18 | 3.02 ± 0.23 |  | 
29 | GDDSDLSEGFESDSSHDSARASEG [SMG5] | 5.47 ± 0.3 | 5.48 ± 0.13 |  | 
30 | NSEDIFLLLCLKVDNHFNLLTTSP [TRIM43] | 2.58 ± 0.33 | 2.31 ± 0.67 |  | 
31 | HLGKEQSRRDDLEALGHMFMYFLR [CSNK1G1] | 2.61 ± 0.24 | 2.25 ± 0.26 |  | 
32 | EKAFSYRQMAFDFARVKKGADGVM [SNAP91] | 2.67 ± 0.16 | 2.86 ± 0.31 |  | 
33 | NVHTGEFRNCGACVTLMQGHEGSV [WDR88] | 2.35 ± 0.5 | 2.17 ± 0.2 |  | 
34 | NGLALGPDLNILEDSAESRPWRAG [PSD2] | 4 ± 0.14 | 4.24 ± 0.38 |  | 
35 | SLYGENSNSLSSAEPLKEDKPVTG [ATF6] | 4.54 ± 0.1 | 4.58 ± 0.22 |  | 
36 | SSGRKWGDDAPKEEVDTGAVNLIE [INTS4] | 5.22 ± 0.6 | 5.21 ± 0.13 |  | 
37 | PSLDSRQRLDYEREIQPTAILSLD [SPRY1] | 4.39 ± 0.16 | 4.53 ± 0.22 |  | 
38 | VGALLVYDIAKHLTYENVERWLKE [RAB11A] | 2.54 ± 0.32 | 2.32 ± 0.54 |  | 
39 | LEGYISNLRKQLETLSGDRVRLDS [KRT71] | 3.17 ± 0.4 | 3.26 ± 0.35 |  | 
40 | MDSAGQDINLNSPNKGLLSDSMTD [TPD52L2] | 5.32 ± 0.2 | 5.25 ± 0.2 |  | 
41 | NDNKVLRYLAVLESPIPEDKDRRF [EFHC1] | 3.51 ± 0.21 | 3.6 ± 0.15 |  | 
42 | LLELQSQQACTHTKETEQLRSQLQ [CCDC89] | 4.06 ± 0.32 | 4.29 ± 0.25 |  | 
43 | RGSDLKVLEVTEESIDFDQGELAD [FBXO33] | 5.42 ± 0.14 | 5.519 ± 0.053 |  | 
44 | LNYLVDPVTICCGHSFCRPCLCLS [TRIM43] | 2.26 ± 0.34 | 2.42 ± 0.23 |  | 
45 | KKAEKKLEENPYDLDAWSILIREA [CSTF3] | 3.19 ± 0.36 | 3.26 ± 0.41 |  | 
46 | GSYGGFASAPTTPCQKSPNGVRVF [TRIM9] | 3.17 ± 0.18 | 3.25 ± 0.24 |  | 

Row | Sequence | protein stability index [1] | protein stability index [2] | protein stability index (treatment: DMSO, c terminus: native) | protein stability index (treatment: MLN4924 1 uM, 8 h, c terminus: native)
47 | GHISLRRENSSDSPKELKRRNSSS [DLC1] | 5.03 ± 0.27 | 5.23 ± 0.15 |  | 
48 | VKARKQEIIKVTEQLIEAINNGDF [CAMK2D] | 2.59 ± 0.28 | 2.93 ± 0.3 |  | 
49 | GSLGSRAEPAPRAREGGGCGRSEV [SMAD6] | 4.84 ± 0.15 | 4.92 ± 0.11 |  | 
50 | VETARSHQRSSSESYTQSFQSRKP [PI4K2A] | 5 ± 0.33 | 5.04 ± 0.29 |  | 
51 | SEKASKKYVSKELAKEIRVKAEPF [EIF5] | 4.29 ± 0.28 | 4.36 ± 0.18 |  | 
52 | DGDIPNIPAEENASTSTPSSTLVR [FAM189A2] | 5.47 ± 0.2 | 5.55 ± 0.15 |  | 
53 | HARARDQGQPAMEGHCVIQVDVGD [PCDHGC5] | 4.61 ± 0.068 | 4.58 ± 0.23 |  | 
54 | GLFAVGEHTGEVRTARALLDRDAL [PCDHGA10] | 3.84 ± 0.57 | 3.81 ± 0.29 |  | 
55 | QRPVSRQVTCLRTQVLEDSEDSFC [TRAF3IP2] | 4.68 ± 0.19 | 4.53 ± 0.14 |  | 
56 | SPLEEKHDQCKCENLIMFQNLANE [MATN2] | 4.365 ± 0.004 | 4.05 ± 0.69 |  | 
57 | APAPSQVKSKAKKTVDKHSDEYKI [CEBPB] | 5.36 ± 0.17 | 5.37 ± 0.25 |  | 
58 | RHIFMGYLESETETTEAIDDEGWL [ACSBG2] | 4.08 ± 0.27 | 4.13 ± 0.16 |  | 
59 | FRALKRPLQFLGLFENSLCRLTHI [ZER1] | 2.62 ± 0.4 | 2.46 ± 0.54 |  | 
60 | TLRSHLKSFSMAKGLNARMMRGLS [RAB40A] | 2.47 ± 0.19 | 2.78 ± 0.24 |  | 
61 | GGYFKARLKFPIDYPYSPPAFRFL [CDC34] | 2.82 ± 0.33 | 2.58 ± 0.51 |  | 
62 | CHRHYHSMEVFTHYDLLNLNGTKV [LOXL2] | 2.21 ± 0.12 | 1.99 ± 0.25 |  | 
63 | HWNGRHKPWDFPSVHNDLWESWFV [GLT8D2] | 2.28 ± 0.58 | 2.54 ± 0.52 |  | 
64 | FPDLNTYIYYNEKYGGPNHHLPLP [CPN1] | 2.15 ± 0.17 | 2.42 ± 0.096 |  | 
65 | DVPTIQEKVNEGKYRSYEEFKADA [ZMYND11] | 5.21 ± 0.3 | 5.26 ± 0.15 |  | 
66 | PVTNNLLEKCKTLVSQSNDLSSLR [SPACA9] | 3.04 ± 0.2 | 3.14 ± 0.24 |  | 
67 | FNMMEQKKRVSMILQSPAFCEELE [ADD1] | 3.27 ± 0.088 | 3.4 ± 0.11 |  | 
68 | YPVVVAESMYGDFQEAMTHLQHKL [TENT5D] | 2.49 ± 0.15 | 2.81 ± 0.38 |  | 
69 | RYHLQQNVHFKEETVKLFICELVM [STK32A] | 2.35 ± 0.41 | 2.46 ± 0.26 |  | 

Row | Sequence | protein stability index [1] | protein stability index [2] | protein stability index (treatment: DMSO, c terminus: native) | protein stability index (treatment: MLN4924 1 uM, 8 h, c terminus: native)
70 | GLDPEPLPLMDLCRRSIRSALGRQ [SPSB4] | 3.79 ± 0.23 | 3.75 ± 0.18 |  | 
71 | ELKLGRKVPESLVRSLRGEEPVPR [LURAP1L] | 3.85 ± 0.25 | 4.16 ± 0.33 |  | 
72 | LHVNGESLEMDSDEDDSEELEEDD [EHMT1] | 5.41 ± 0.26 | 5.28 ± 0.12 |  | 
73 | FKPKLYKGDRGLPLEGSAKGKVQA [RBBP5] | 3.96 ± 0.44 | 3.98 ± 0.27 |  | 
74 | PRNSCITCPQCHRSLILDDRGLRG [TRIM9] | 2.58 ± 0.27 | 3 ± 0.45 |  | 
75 | RAYGFRGPGPQLRRGWRPSSREDS [CHGA] | 3.9 ± 0.4 | 4.07 ± 0.47 |  | 
76 | REVKVLLDQLRFPNGVQLSPAEDF [APMAP] | 2.97 ± 0.4 | 2.95 ± 0.5 |  | 
77 | AKNYIWALSEILRIGKRPDLLTFV [NEUROD6] | 2.53 ± 0.52 | 2.69 ± 0.92 |  | 
78 | SGNGDFGDWSAFNQAPSGPVASSG [CLINT1] | 4.37 ± 0.13 | 4.38 ± 0.11 |  | 
79 | NKALWENNKLKLQQKLVIDTVTEV [CBY2] | 3.16 ± 0.35 | 3.29 ± 0.25 |  | 
80 | LNEDPLKWWSDRLALFPLLPKVLQ [ZBED1] | 2.2 ± 0.25 | 2.16 ± 0.1 |  | 
81 | RDLKLCRFVFADRERKKLVLENLE [TRIB3] | 2.36 ± 0.23 | 2.51 ± 0.25 |  | 
82 | LVLLRQMLLELTRRGQEPLSALLQ [BCL2L13] | 2.37 ± 0.22 | 2.62 ± 0.48 |  | 
83 | ELERAQHELLLGSLQQQHQADLEL [FBF1] | 4.15 ± 0.21 | 4.49 ± 0.28 |  | 
84 | RSVSEPRDQHPQPSLGDSLESIPS [RTN2] | 5.34 ± 0.41 | 5.17 ± 0.24 |  | 
85 | DSHVSSCSEDWVGYQRKCYFISTV [CD69] | 2.46 ± 0.88 | 2.65 ± 0.6 |  | 
86 | TWRHRETLIIAVLVSASIANLWLW [FATE1] | 3.2 ± 0.37 | 2.77 ± 0.26 |  | 
87 | YITKVSEEVTRLGAQVKELEEKCQ [TRIM15] | 4.07 ± 0.24 | 4.22 ± 0.37 |  | 
88 | EPSELDNPFQDPAVIQHRPSRQYA [SCAMP3] | 4.67 ± 0.22 | 4.77 ± 0.13 |  | 
89 | KMELGIDLLAYGAKAELPKYKSFN [MYOZ1] | 2.59 ± 0.23 | 2.77 ± 0.24 |  | 
